According to patent US20030027314A1:
Values belong to the binder of their own block, whether it stands above or below them.

Key:
CREB (unmodified) = molecular target: T1, CREB (unmodified); assay: thermal melting curve, mixture (FIG. 3)
T1 sequence (chain, from a related filing, looked up): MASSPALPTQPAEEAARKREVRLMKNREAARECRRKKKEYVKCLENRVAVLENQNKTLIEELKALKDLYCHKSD

[1] = molecular target: c-Myc bHLH protein (murine) (UniProt P01108); assay: heterodimer with c-Myc, study of FIG. 9 (method not given)
c-Jun (unmodified) = assay: from thermal melts, Kd at 37 °C (FIG. 4)
[2] = molecular target: C/EBP bZIP domain (chimeric GCN4-C/EBP protein) (C/EBP part: 'present in rat liver'; GCN4 part: yeast); assay: CD thermal melt, equimolar mixture, 150 mM KCl

B2: 0heptadMax (dimerization domain of Max without an acidic extension) (protein)
chain: ASMTGGQQMGRDPDLEELEDSFHSLRDSVPSLQGEKASRAQILDKATEYIQYMRRKNHTHQQDIDDLKRQNALLEQQVRALEKARSSAQLQT
Kd [1]: 0.6 nM

B3: c-Jun (unmodified) (protein, from a related filing)
chain: PLSPIDMESQERIKAERKRMRNRIAASKCRKRKLERIARLEEKVKTLKAQNSELASTANMLREQVAQLKQKVMNHVNSGCQLMLTQQLQTF
Kd (c-Jun (unmodified)): 20000 nM

More lines, now with the values ahead:

Tm (CREB (unmodified)): 69.5 °C
B1: New4hepCREB (CREB with the new 4heptad acidic extension, asparagine changed to leucine) (designed binder)
chain: MDYKDDDDKHMASMTGGQQMGRDPDLEQRAEELARENEELEKEAEELEQELAELENRVAVLENQNKTLIEELKALKDLYCHKSD

Kd [2]: 0.6 nM
Tm [2]: 61 °C
delta G at 25 °C [2]: -12.6 kcal/mol
B4: 3heptad-C/EBP (three heptad acidic extension appended onto the C/EBP leucine zipper) (designed binder, not shown: a dimerising Fc or GST)
chain: ASMTGGQQMGRDPGGGLARENEELEKEAEELEQENAELEQKVLELTSDNDRLRKRVEQLSRELDTLRGIFRQLPESSLVKAMGNCA

Kd [1]: 0.002 nM
B5: AcidMax (Max with a polyglutamic acid extension on the dimerization domain) (designed binder)
chain: MASMTGGQQMGRDPDEEEDDEEELEELEDSFHSLRDSVPSLQGEKASRAQILDKATEYIQYMRRKNHTHQQDIDDLKRQNALLEQQVRALEKARSSAQLQT
